Assay results as given in paper PMC11169033.

Substrate: CN(C)c1ccc(/C=C/c2cc[n+](C)cc2)cc1
Test: saturation of fluorescent uptake in hOCT2-HEK293 cells (affinity, control condition)
Format: cell-based, Homo sapiens

B1: human organic cation transporter 2 (hOCT2) (Homo sapiens) (protein)
chain: MPTTVDDVLEHGGEFHFFQKQMFFLLALLSATFAPIYVGIVFLGFTPDHRCRSPGVAELSLRCGWSPAEELNYTVPGPGPAGEASPRQCRRYEVDWNQSTFDCVDPLASLDTNRSRLPLGPCRDGWVYETPGSSIVTEFNLVCANSWMLDLFQSSVNVGFFIGSMSIGYIADRFGRKLCLLTTVLINAAAGVLMAISPTYTWMLIFRLIQGLVSKAGWLIGYILITEFVGRRYRRTVGIFYQVAYTVGLLVLAGVAYALPHWRWLQFTVSLPNFFFLLYYWCIPESPRWLISQNKNAEAMRIIKHIAKKNGKSLPASLQRLRLEEETGKKLNPSFLDLVRTPQIRKHTMILMYNWFTSSVLYQGLIMHMGLAGDNIYLDFFYSALVEFPAAFMIILTIDRIGRRYPWAASNMVAGAACLASVFIPGDLQWLKIIISCLGRMGITMAYEIVCLVNAELYPTFIRNLGVHICSSMCDIGGIITPFLVYRLTNIWLELPLMVFGVLGLVAGGLVLLLPETKGKALPETIEEAENMQRPRKNKEKMIYLQVQKLDIPLN
notes: hOCT2 stably expressed in HEK293 cells
With B1 the Km was 20.5 µM.
